{
  "source": "patent US20220288204A1",
  "about": "“DOSAGE AND ADMINISTRATION OF ANTI-ERBB3 (HER3) MONOCLONAL ANTIBODIES TO TREAT TUMORS ASSOCIATED WITH NEUREGULIN 1 (NRG1) GENE FUSIONS” (ELEVATION ONCOLOGY, INC., priority 2021, published 2022)",
  "key": {"MDA-MB-175-VII cells": {"system": "MDA-MB-175-VII cells", "assay": "Caspase 3/7 enzymatic activity in cell homogenates (apoptosis)", "assay_type": "cell-based, human", "procedure": "(§1) MCF-7 cells were treated with the indicated concentrations of NRG1-b1 for 10 minutes, and then cell extracts were prepared and subjected to Western blotting for the indicated phosphorylated (p) or total (t) proteins (FIG. 2A). […] Data were analyzed by nonlinear regression using GraphPad Prism 8. There were four replicates of each condition and data represent the mean±SD. […] Cells were counted on the days indicated on the graph. Results represent the mean±SD of duplicates of each condition in one representative experiment. MDA-MB-175-VII (FIG. 2D) and LUAD-0061AS3 (FIG. 2E) cells were treated with the indicated concentrations of inhibitors for 48 hours, and then caspase 3/7 enzymatic activity was measured in cell homogenates. Carfilzomib (20S proteasome inhibitor) was used as a positive control for apoptosis. Results are the mean±SEM of three independent experiments in which each condition was assayed in three replicate determinations. The absence of an error bar for any data point indicates an error value too small to be represented on the scale used.\n(§2) As a positive control for activation of caspase 3/7, 1 μmol/L carfilzomib was used."}, "LUAD-0061AS3 cells": {"system": "LUAD-0061AS3 cells", "assay": "Caspase 3/7 enzymatic activity in cell homogenates (apoptosis)", "assay_type": "cell-based, human", "procedure": "as §1, §2"}, "OV-10-0050 PDX tumors": {"system": "OV-10-0050 PDX tumors", "assay": "HGSOC ovarian PDX model efficacy (CLU-NRG1)", "assay_type": "in vivo, mice", "set-up": "average tumor volume at the time of the last treatment: unit not given beside the values", "settings": "afatinib 5 mg/kg once daily, day 27", "text": "IHC characterization of the OV-10-0050 PDX model (FIG. 6A). H&E staining, WT1, and TP53 IHC (left to right). […] (FIG. 6B). Treatment was terminated on day 27 and animals were monitored for tumor regrowth until tumors reached maximum allowable size or until 90 days after treatment initiation. Results represent the mean tumor volume ±SEM. A zoom-in view on tumor volumes during the last 40 days of monitoring of seribantumab-treated groups (right). […] Change in the volume of individual tumors (day 27 vs. volume at start of treatment) (FIG. 6C).\nCrushed PDX tumor samples were mixed with Matrigel (50%) and injected into the subcutaneous flank of 6-week-old female NSG (LUAD-0061AS3) or Balb/c nude (OV-10-0050) mice. When tumors reached approximately 100-150 mm3, mice were randomly assigned to groups of 5-8 and treatment was commenced. There were 2 mice per group with bilateral flank tumors for the protein phosphorylation/expression study in the LUAD-0061AS3 PDX model. Drugs were administered once, and then tumors were collected at 2, 24, and 168 hours posttreatment. Afatinib was administered by oral gavage once daily as a suspension (in 0.5% methylcellulose-0.4% Tween-80) on a 5-days-on and 2-days-off schedule. […] Mice were observed daily throughout the treatment period for signs of morbidity and mortality. Tumor length and width and animal weights were measured twice weekly. Tumor volume was calculated using the empirical formula V=length×width 2×0.52. The percentage change in tumor volume of each tumor was calculated using the formula [(V2−V1)/V1)]×100, where V1 is the starting tumor volume and V2 is the final tumor volume.\nRT-PCR confirmed the presence of the CLU-NRG1 fusion. Xenograft tissue morphology and IHC markers (positive for WT1 and strong nuclear staining for TP53) were consistent with HGSOC histology (FIG. 6A; Kobel M, et al., Int. J. Gynecol. Pathol. 2016; 35:430-41). […] As with the above experiments in the NSCLC PDX model, the doses of seribantumab used here were lower than the dose that is used in patients. Treatment was terminated at day 27 and tumor growth was monitored for an additional 63 days (90 days after initiation of treatment or once tumors reached the maximum allowable size). The tumor volume as a function of time is illustrated in FIG. 6B, and the AUC was computed for each group to compare tumor volumes between groups at the last date of treatment. […] Forty-one days after treatment began, mice bearing vehicle- and afatinib-treated tumors were sacrificed because of the high tumor burden."}, "human ERBB3 (HER3)": {"target": "human ERBB3 (HER3) (human, UniProt P21860 20-1342)", "sequence (P21860 other isoform, or with tags, fused parts or gaps)": "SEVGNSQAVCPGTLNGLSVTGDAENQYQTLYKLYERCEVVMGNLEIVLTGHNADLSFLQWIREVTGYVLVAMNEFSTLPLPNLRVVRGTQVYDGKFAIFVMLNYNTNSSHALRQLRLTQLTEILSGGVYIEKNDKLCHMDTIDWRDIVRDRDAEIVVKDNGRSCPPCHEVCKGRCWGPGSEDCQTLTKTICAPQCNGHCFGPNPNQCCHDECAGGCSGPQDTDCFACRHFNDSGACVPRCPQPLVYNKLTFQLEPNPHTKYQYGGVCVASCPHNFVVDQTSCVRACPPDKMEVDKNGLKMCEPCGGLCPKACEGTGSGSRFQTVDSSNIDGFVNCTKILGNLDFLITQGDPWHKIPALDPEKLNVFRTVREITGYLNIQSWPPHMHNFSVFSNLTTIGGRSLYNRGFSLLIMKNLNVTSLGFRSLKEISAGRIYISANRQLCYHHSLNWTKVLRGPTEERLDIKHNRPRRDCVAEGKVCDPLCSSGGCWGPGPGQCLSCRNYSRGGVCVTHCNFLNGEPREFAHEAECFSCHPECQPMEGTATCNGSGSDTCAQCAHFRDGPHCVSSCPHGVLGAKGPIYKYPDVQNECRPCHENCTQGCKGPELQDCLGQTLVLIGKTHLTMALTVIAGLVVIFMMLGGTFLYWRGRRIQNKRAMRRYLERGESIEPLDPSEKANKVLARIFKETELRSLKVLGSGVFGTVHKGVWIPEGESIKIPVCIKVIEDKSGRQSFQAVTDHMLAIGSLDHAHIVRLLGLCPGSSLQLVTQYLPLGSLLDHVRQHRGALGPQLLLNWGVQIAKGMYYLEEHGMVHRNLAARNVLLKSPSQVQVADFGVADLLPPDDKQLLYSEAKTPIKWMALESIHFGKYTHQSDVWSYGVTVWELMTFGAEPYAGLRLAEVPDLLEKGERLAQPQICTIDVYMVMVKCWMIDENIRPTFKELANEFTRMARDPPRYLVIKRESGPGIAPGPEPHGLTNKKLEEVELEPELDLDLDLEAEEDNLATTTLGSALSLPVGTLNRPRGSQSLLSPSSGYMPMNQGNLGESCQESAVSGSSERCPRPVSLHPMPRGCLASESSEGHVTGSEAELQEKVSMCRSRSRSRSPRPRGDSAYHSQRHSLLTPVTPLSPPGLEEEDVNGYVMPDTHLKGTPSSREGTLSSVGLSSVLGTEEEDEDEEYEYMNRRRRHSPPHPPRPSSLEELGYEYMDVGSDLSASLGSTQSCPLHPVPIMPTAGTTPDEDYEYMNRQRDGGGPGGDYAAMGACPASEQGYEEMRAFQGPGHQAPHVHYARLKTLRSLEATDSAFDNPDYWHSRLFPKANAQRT", "assay": "cell-based or functional assay"}, "[1]": {"settings": "1 μmol/L carfilzomib, positive control"}},
  "data": [
    {"molecule": "CC(C)C[C@H](NC(=O)[C@H](CCc1ccccc1)NC(=O)CN1CCOCC1)C(=O)N[C@@H](Cc1ccccc1)C(=O)N[C@@H](CC(C)C)C(=O)[C@@]1(C)CO1", "note": "[carfilzomib]", "values": [
      {"measurement": "caspase 3/7 activity", "setting": "MDA-MB-175-VII cells; [1]", "value": "16.6±1.9", "unit": "fold above control"},
      {"measurement": "caspase 3/7 activity", "setting": "LUAD-0061AS3 cells; [1]", "value": "5.8±1.3", "unit": "fold above control"}
    ]},
    {"molecule": "CN(C)C/C=C/C(=O)Nc1cc2c(Nc3ccc(F)c(Cl)c3)ncnc2cc1O[C@H]1CCOC1", "note": "[afatinib]", "values": [
      {"measurement": "average tumor volume at the time of the last treatment", "setting": "OV-10-0050 PDX tumors", "value": "786.4±190.5"},
      {"measurement": "caspase 3/7 activity", "setting": "MDA-MB-175-VII cells; 10 μmol/L, 48 hours", "value": "14.1±3.6", "unit": "fold above control"},
      {"measurement": "caspase 3/7 activity", "setting": "LUAD-0061AS3 cells; highest concentration used, 48 hours", "value": "3.3±0.1", "unit": "fold above control"}
    ]},
    {"molecule": "seribantumab (antibody, human IgG2, lambda, V domains shown) VH: EVQLLESGGGLVQPGGSLRLSCAASGFTFSHYVMAWVRQAPGKGLEWVSSISSSGGWTLYADSVKGRFTISRDNSKNTLYLQMNSLRAEDTAVYYCTRGLKMATIFDYWGQGTLVTVSS VL: QSALTQPASVSGSPGQSITISCTGTSSDVGSYNVVSWYQQHPGKAPKLIIYEVSQRPSGVSNRFSGSKSGNTASLTISGLQTEDEADYYCCSYAGSSIFVIFGGGTKVTVLG", "values": [
      {"measurement": "IC50 for growth inhibition, HBECp53 cells (nontumor, no NRG1 fusion, control), 96 h, AlamarBlue viability", "setting": "human ERBB3 (HER3)", "value": 203, "unit": "µM"},
      {"measurement": "IC50 for growth inhibition, LUAD-0061AS3 cells (SLC3A2-NRG1 fusion), 96 h, AlamarBlue viability", "setting": "human ERBB3 (HER3)", "value": 1.4, "unit": "µM"},
      {"measurement": "IC50 for growth inhibition, MCF-7 cells (no NRG1 fusion, control), 96 h, AlamarBlue viability", "setting": "human ERBB3 (HER3)", "value": 45.2, "unit": "µM"},
      {"measurement": "IC50 for growth inhibition, MDA-MB-175-VII cells (DOC4-NRG1 fusion), 96 h, AlamarBlue viability", "setting": "human ERBB3 (HER3)", "value": 0.02, "unit": "µM"},
      {"measurement": "caspase 3/7 activity, LUAD-0061AS3 cells, highest concentration used, 48 h", "setting": "human ERBB3 (HER3)", "value": 4, "unit": "fold above control"},
      {"measurement": "caspase 3/7 activity, MDA-MB-175-VII cells, 10 µmol/L, 48 h", "setting": "human ERBB3 (HER3)", "value": 12.7, "unit": "fold above control"}
    ]}
  ]
}
